Measurements published in patent publication US20050064507A1, “Determining kinase specificity” (priority 2003, published 2005).

Tests used:
[1] = molecular target: LIMK-2 peptide … (SEQ ID NO:121) after phosphorylation by PKC-theta (human); assay: pPKC Ab binding to biotinylated peptide on avidin-coated plate; signal after minus signal without PKC-theta
[2] = molecular target: MLK3 peptide … (SEQ ID NO:76) after phosphorylation by PKC-theta (human); assay: as above
[3] = molecular target: LIMK-2 peptide … (SEQ ID NO:121) (human); assay: pPKC Ab binding to biotinylated peptide on avidin-coated plate
[4] = molecular target: MLK3 peptide … (SEQ ID NO:76) (human); assay: as above
[5] = molecular target: LIMK-2 peptide … (SEQ ID NO:121) after phosphorylation by PKC-theta (human); assay: as above
[6] = molecular target: MLK3 peptide … (SEQ ID NO:76) after phosphorylation by PKC-theta (human); assay: as above
[7] = molecular target: SHP-1 phosphopeptide HAKASRTS-pS-KHKEDVYE (SEQ ID NO:294) (human); assay: ELISA on phosphopeptides synthesized in microtiter wells; settings: scale: normalized
[8] = molecular target: SHP-1 phosphopeptide HGSFLARP-pS-RKNQGDFS (SEQ ID NO:300) (human); assay: as above; settings: scale: normalized
[9] = molecular target: SHP-1 phosphopeptide LKGRGVHG-pS-FLARPSRK (SEQ ID NO:299) (human); assay: as above; settings: scale: normalized
[10] = molecular target: SHP-1 phosphopeptide KKKLEVLQ-pS-QKGQESEY (SEQ ID NO:292) (human); assay: as above; settings: scale: normalized
[11] = molecular target: SHP-1 phosphopeptide PLNCSDPT-pS-ERWYHGHM (SEQ ID NO:297) (human); assay: as above; settings: scale: normalized
[12] = molecular target: SHP-1 phosphopeptide PSEPGGVL-pS-FLDQINQR (SEQ ID NO:293) (human); assay: as above; settings: scale: normalized
[13] = molecular target: SHP-1 phosphopeptide RVILQGRD-pS-NIPGSDYI (SEQ ID NO:290) (human); assay: as above; settings: scale: normalized
[14] = molecular target: SHP-1 phosphopeptide AHAKASRT-pS-SKHKEDVY (SEQ ID NO:291) (human); assay: as above; settings: scale: normalized
[15] = molecular target: SHP-1 phosphopeptide MKNAHAKA-pS-RTSSKHKE (SEQ ID NO:289) (human); assay: as above; settings: scale: normalized
[16] = molecular target: SHP-1 phosphopeptide PWTFLVRE-pS-LSQPGDFV (SEQ ID NO:295) (human); assay: as above; settings: scale: normalized
[17] = molecular target: SHP-1 phosphopeptide KNQGDFSL-pS-VRVGDQVT (SEQ ID NO:296) (human); assay: as above; settings: scale: normalized
[18] = molecular target: SHP-1 phosphopeptide ADKEKSKG-pS-LKRK (SEQ ID NO:298) (human); assay: as above; settings: scale: normalized

pPKC Ab Signal amount dependent on PKC phosphorylation [1]: 1.11
pPKC Ab Signal amount dependent on PKC phosphorylation [2]: 0.95
pPKC Ab Signal on peptide without exposure to PKC-theta [3]: 0.02
pPKC Ab Signal on peptide without exposure to PKC-theta [4]: 0.07
pPKC Ab Signal on peptide after exposure to PKC-theta phosphorylation [5]: 1.13
pPKC Ab Signal on peptide after exposure to PKC-theta phosphorylation [6]: 1.02
Binding of pPKC antibody [7]: 7
Binding of pPKC antibody [8]: 39
Binding of pPKC antibody [9]: 54
Binding of pPKC antibody [10]: 11
Binding of pPKC antibody [11]: 0
Binding of pPKC antibody [12]: 9
Binding of pPKC antibody [13]: 13
Binding of pPKC antibody [14]: 12
Binding of pPKC antibody [15]: 18
Binding of pPKC antibody [16]: 5
Binding of pPKC antibody [17]: 3
Binding of pPKC antibody [18]: 100
Substance: phospho-PKC motif antibody (Phospho-(Ser) PKC Substrate Antibody, Cell Signaling Technology)
